# Measured values published in patent US20150291967.
# How the values were obtained:
# Assay in all cases: cell_activity
# [1] = system: TALEN ALS2_T01 left monomer (synthetic construct)
# [2] = system: TALEN ALS2_T02 left monomer (synthetic construct)
# [3] = system: TALEN ALS1_T01 right monomer (synthetic construct); details: yeast beta-galactosidase reporter, pair with P1, 37 C (0.83 at 30 C)
# [4] = system: TALEN ALS1_T01 left monomer (synthetic construct); details: yeast beta-galactosidase reporter, pair with P2, 37 C (0.83 at 30 C)
# [5] = system: TALEN ALS1_T02 left monomer (synthetic construct)
# [6] = system: TALEN ALS2_T01 right monomer (synthetic construct)
# [7] = system: TALEN ALS1_T02 right monomer (synthetic construct)
# [8] = system: TALEN ALS2_T02 right monomer (synthetic construct)
sequence,measurement,setting,value
TAGCTTGTTCCACATTT (double strand) [ALS2_T01 left half-site],activity,"[1]; endogenous site, N. benthamiana protoplasts, pair with P6, control 0.25%",74 % NHEJ
same,activity (relative to I-SceI),"[1]; yeast beta-galactosidase reporter, pair with P6, 37 C (0.9 at 30 C)",1
TTCTCTCGAGTCCTAGG (double strand) [ALS2_T02 left half-site],activity,"[2]; endogenous site, N. benthamiana protoplasts, pair with P8, control 0.10%",66.9 % NHEJ
same,activity (relative to I-SceI),"[2]; yeast beta-galactosidase reporter, pair with P8, 37 C (0.9 at 30 C)",1
TTTTATTTCGTAAGCTA (double strand) [ALS1_T01 right half-site (top strand)],activity (relative to I-SceI),[3],0.93
TTTAGTGCGATAAAGTT (double strand) [ALS1_T01 left half-site],activity (relative to I-SceI),[4],0.93
TTGGACTTGTATGGGTT (double strand) [ALS1_T02 left half-site],activity,"[5]; endogenous site, N. benthamiana protoplasts, pair with P4, control 0.55%",4.9 % NHEJ
same,activity (relative to I-SceI),"[5]; yeast beta-galactosidase reporter, pair with P4, 37 C (0.90 at 30 C)",0.95
TGTCATGCTGGGTCAGA (double strand) [ALS2_T01 right half-site (top strand)],activity,"[6]; endogenous site, N. benthamiana protoplasts, pair with P5, control 0.25%",74 % NHEJ
same,activity (relative to I-SceI),"[6]; yeast beta-galactosidase reporter, pair with P5, 37 C (0.9 at 30 C)",1
TATAAGTTGATTCTTAA (double strand) [ALS1_T02 right half-site (top strand)],activity,"[7]; endogenous site, N. benthamiana protoplasts, pair with P3, control 0.55%",4.9 % NHEJ
same,activity (relative to I-SceI),"[7]; yeast beta-galactosidase reporter, pair with P3, 37 C (0.90 at 30 C)",0.95
CTGTCTCCTATTTCCTA (double strand) [ALS2_T02 right half-site (top strand)],activity,"[8]; endogenous site, N. benthamiana protoplasts, pair with P7, control 0.10%",66.9 % NHEJ
same,activity (relative to I-SceI),"[8]; yeast beta-galactosidase reporter, pair with P7, 37 C (0.9 at 30 C)",1
